For orientation: Kd means the concentration at which binding is half-saturated. The low end stands for higher affinity, the high end for lower affinity.

Assay [1] has as its target SARS-CoV-2 nucleocapsid (N) protein, N-FL (SARS-CoV-2 (reference sequence; isolate …, UniProt P0DTC9). In words: SPR. A general note: SPR reads the build-up and loss of mass on a sensor chip optically.
For another assay, the target named is SARS-CoV N protein (SARS-CoV (strain ; reference …, UniProt P59595). Kind of assay: SPR.

B1: mAb nCoV396 (antibody, V domains shown)
VH: QVQLVESGGGVVQPGRSLRLSCAASGFTFSSYIMHWVRQAPGKGLEWVAVISYDGSNEAYADSVKGRFTISRDNSKNTLYLQMSSLRAEDTGVYYCARETGDYSSSWYDSWGRGTLVTVSS
VL: QLVLTQSPSASASLGASVKLTCTLSSGHSNYAIAWHQQQPEKGPRYLMKVNSDGSHTKGDGIPDRFSGSSSGAERYLTISSLQSEDEADYYCQTWGTGIQVFGGGTKLTVL
As for B1, the equilibrium dissociation constant (Kd) amounted to 1.02 nM in assay [1] and 7.4 nM with SARS-CoV N protein.

The record behind these values is publication doi:10.1101/2020.09.10.292318 (bioRxiv, 2020).
